Results from patent US20180244725.

Tested on: T1, R5 peptide
T1 sequence: SSKKSGSYSGSKGSKRRIL

JMJD6 (Auxenochlorella protothecoides)
enzymatic modification of R5 (Hydroxylation): resulted in no modifications

JMJD6 (Nannochloropsos gaditana)
enzymatic modification of R5 (Hydroxylation): resulted in no modifications

LIPT1
enzymatic modification of R5 (Lipidation): resulted in no modifications

Protein Kinase A (PKA) (NEB P6000S)
phosphorylation sites on R5 (LC-MS/MS): primary phosphorylation at Ser11, with very low levels of phosphorylation at Ser4, Ser7, and Ser1.6

THAOC_04424
enzymatic modification of R5 (Hydroxylation): resulted in no modifications

THAOC_24272
methylation of R5 (LC-MS, LC-MS/MS): the methylation occurs on all four lysine with no discernable preference or pattern

THAOC_27572
enzymatic modification of R5 (Hydroxylation): resulted in no modifications

THAOC_37500
methylation of R5 (LC-MS time course): A time course showing the incorporation of zero to 16 methyl groups into R5

Tyrosinase from mushrooms (Sigma T3824)
oxidation and polymerization of R5 (absorbance at 350 nm, SDS-PAGE): A time course was generated showing the production of oxidized R5 (FIGS. 6B-6C) and the subsequent spontaneous formation of R5 polymers
